These results are taken from publication PMC10584130, “Effects of HSP70 chaperones Ssa1 and Ssa2 on Ste5 scaffold and the mating mitogen-activated protein kinase (MAPK) pathway in Saccharomyces cerevisiae” (PLOS ONE, 2023).

This assay concerns the target T1, Ste5-Myc9 (S. cerevisiae, UniProt P32917 1-917).
T1 construct: Ste5 MAPK scaffold protein of S. cerevisiae; source: S. cerevisiae (EY1775 ste5 bar1; EY3136/EY3141), expressed from plasmids (pSKM19 2μ; pSKM90), in whole cell extract; not shown: Myc9, C-terminal, kept
T1 sequence (looked up): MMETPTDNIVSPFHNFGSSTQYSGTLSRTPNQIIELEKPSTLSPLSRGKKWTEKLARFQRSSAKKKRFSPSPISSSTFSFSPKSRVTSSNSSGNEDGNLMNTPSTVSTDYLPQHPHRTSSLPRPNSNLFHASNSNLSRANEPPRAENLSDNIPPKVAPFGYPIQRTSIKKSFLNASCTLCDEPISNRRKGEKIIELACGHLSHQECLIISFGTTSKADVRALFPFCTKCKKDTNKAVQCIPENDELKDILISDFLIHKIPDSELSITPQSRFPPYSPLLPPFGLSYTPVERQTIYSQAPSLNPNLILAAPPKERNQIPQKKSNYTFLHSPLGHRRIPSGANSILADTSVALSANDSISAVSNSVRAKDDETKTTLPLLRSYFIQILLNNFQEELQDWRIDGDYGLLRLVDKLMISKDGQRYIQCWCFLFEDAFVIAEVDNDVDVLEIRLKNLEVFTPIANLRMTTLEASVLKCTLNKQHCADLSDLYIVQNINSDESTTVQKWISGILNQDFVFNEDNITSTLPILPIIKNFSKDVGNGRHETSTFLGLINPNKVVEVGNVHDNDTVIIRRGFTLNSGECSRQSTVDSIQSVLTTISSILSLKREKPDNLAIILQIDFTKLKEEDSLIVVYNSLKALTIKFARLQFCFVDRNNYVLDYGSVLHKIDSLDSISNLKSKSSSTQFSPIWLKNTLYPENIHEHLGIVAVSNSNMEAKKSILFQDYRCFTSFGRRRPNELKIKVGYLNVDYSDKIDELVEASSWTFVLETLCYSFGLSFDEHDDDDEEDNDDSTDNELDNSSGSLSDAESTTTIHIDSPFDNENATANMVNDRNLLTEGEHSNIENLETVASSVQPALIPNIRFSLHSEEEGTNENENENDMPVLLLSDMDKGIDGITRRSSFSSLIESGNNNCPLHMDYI
The assay is described as follows: affinity purification with mass spectrometry; Ste5-Myc9 IP'd with 9E10 from 10 mg yeast whole cell extract (EY1775, cells without or with 50 nM α factor for 2 hours); 20 mM Tris-HCl pH 7.2, 125 mM potassium acetate, 0.1% Tween 20; Coomassie-stained SDS gel, 70 kDa band digested with trypsin, LC-MS/MS; ImageJ densitometry of the gel. Particulars: partners not purified.

B1: Hsp70 Ssa1 (endogenous) (natural protein)
chain: not shown
notes: Hsp70 chaperone Ssa1 of S. cerevisiae; also called 70 kDa protein; band a; source: endogenous, S. cerevisiae EY1775 whole cell extract
For the molecule B1, the “ratio Ste5-Myc9:70 kDa Hsp70 (Coomassie densitometry), with α factor” value was found to be 0.67 and the “ratio Ste5-Myc9:70 kDa Hsp70 (Coomassie densitometry), without α factor” value is 1.45.
